Laboratory results taken from patent US20130089560A1.

Molecular target: human BMPR1A, endogenous on human Saos2 cells (human) (UniProt P36894)
Test: cell-based or functional assay

Chain of UniProt P36894 (P36894 24-532 limits assumed): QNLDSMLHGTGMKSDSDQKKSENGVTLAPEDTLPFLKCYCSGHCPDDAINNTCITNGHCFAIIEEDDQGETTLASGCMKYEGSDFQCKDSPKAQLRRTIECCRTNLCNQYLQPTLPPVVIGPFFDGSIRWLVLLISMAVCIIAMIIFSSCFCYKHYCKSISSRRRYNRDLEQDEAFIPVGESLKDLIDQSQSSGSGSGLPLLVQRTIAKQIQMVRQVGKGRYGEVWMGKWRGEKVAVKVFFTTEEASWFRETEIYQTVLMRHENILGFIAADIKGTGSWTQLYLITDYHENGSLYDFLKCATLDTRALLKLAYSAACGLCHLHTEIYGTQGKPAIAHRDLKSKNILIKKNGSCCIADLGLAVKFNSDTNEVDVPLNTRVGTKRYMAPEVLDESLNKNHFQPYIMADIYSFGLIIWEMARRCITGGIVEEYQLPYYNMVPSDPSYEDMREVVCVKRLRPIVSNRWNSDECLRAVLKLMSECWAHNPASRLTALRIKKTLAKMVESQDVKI

Sp7 gene expression levels in Saos2 cells (qPCR, relative to control antibody): 2.4 fold
B1: anti-BMPR1A antibody 5M107 (antibody, part only; not given: light chain and constant regions, V domains shown, part only)
VH: EVQLQQSGPELVKPGTSVKISCKASGYSFTGYYMHWVKQSQVKSLEWIGRINPDNGGRTYNQIFKDKASLTVHKSSSTAYMELHSLTSDDSAVYYCTRERGQYGNYGGFSDWGQGTLVT
